Experimental findings from the supplement of paper PMC10567573 are described below.

± gives the standard deviation.

The nature of this data set: protein stability index of a GFP-peptide fusion (GPS, HEK-293T) (PSI 1-6); higher = more stable. As to conditions: c terminus: a fixed tail appended.
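Note: 24-mer peptide tiles fused after GFP, lentivirally expressed, FACS-sorted into six equal bins by GFP/DsRed ratio, decoded by Illumina sequencing, PSI is the read-weighted mean bin number.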

For the sequence ALHSLTQAGDYSMRVDLRAGDEAV [TNXB], the protein stability index (treatment: DMSO) was determined as 3.39 ± 0.57 and the protein stability index (treatment: MLN4924 1 uM, 8 h) is 3.6 ± 0.49.

Turning to ALKKRSGKKDKHSQSPRAAGPREG [PBXIP1], the protein stability index is, setting by setting: (treatment: DMSO) 4.64 ± 0.14; (treatment: MLN4924 1 uM, 8 h) 4.83 ± 0.34.

The sequence ALKKSADWVSDWSSRPENIPPKEF [BNIP3L] gave a protein stability index (treatment: DMSO) of 3.55 ± 0.23 and a protein stability index (treatment: MLN4924 1 uM, 8 h) of 3.77 ± 0.18.

For ALNWTDIPVAMEHQPPYIIAVLPR [VPS39], the protein stability index reads like this: (treatment: DMSO) 2.23 ± 0.38; (treatment: MLN4924 1 uM, 8 h) 2.25 ± 0.29.

For the sequence ALRQSVEADINGLRRVLDELTLSK [KRT13], the protein stability index (treatment: DMSO) was found to be 3.08 ± 0.2 and the protein stability index (treatment: MLN4924 1 uM, 8 h) worked out at 3.09 ± 0.26.

In the case of ALSGKYSREFFNRRGELRHITKLK [SRPK2], the protein stability index was 2.87 ± 0.15 (treatment: DMSO) and 3.28 ± 0.27 (treatment: MLN4924 1 uM, 8 h).

As to ALVDGQIFCLHGGLSPSIDTLDHI [PPP2CA], the protein stability index is 1.9 ± 0.19 (treatment: DMSO) and 2.19 ± 0.38 (treatment: MLN4924 1 uM, 8 h).

With ALVETSYVKVLHHMVKISGGPHIS [MAGEA3], the protein stability index was found to be 2.8 ± 0.52 (treatment: DMSO) and 2.82 ± 0.78 (treatment: MLN4924 1 uM, 8 h).

As for AMCVGCGSQIHDQFILRVSPDLEW [ISL2], the protein stability index was determined as 2.18 ± 0.36 (treatment: DMSO) and 2.16 ± 0.21 (treatment: MLN4924 1 uM, 8 h).

In the case of AMYISQEEWGHQDPSKRALSRDTV [ZNF263], the protein stability index by setting is: (treatment: DMSO) 3.81 ± 0.12; (treatment: MLN4924 1 uM, 8 h) 4.06 ± 0.14.

For the sequence ANLPVPTIAAIDGLALGGGLELAL [AUH], the protein stability index is, setting by setting: (treatment: DMSO) 2.35 ± 0.37; (treatment: MLN4924 1 uM, 8 h) 2.02 ± 0.55.

Turning to APFLSQADDPDDGPVPGTPGLPGS [SPNS1], the protein stability index by setting is: (treatment: DMSO) 5.55 ± 0.34; (treatment: MLN4924 1 uM, 8 h) 5.43 ± 0.21.

As to APLRKLSVDLIKTYKHINEVYYAK [DYRK1B], the protein stability index is, setting by setting: (treatment: DMSO) 2.84 ± 0.15; (treatment: MLN4924 1 uM, 8 h) 2.96 ± 0.25.

In the case of APSNSTSLNSTFGSTNLTGLFFPP [NFE2L1], the protein stability index was 3.32 ± 0.26 (treatment: DMSO) and 3.08 ± 0.29 (treatment: MLN4924 1 uM, 8 h).

For AQQDLAPDPDAWLRALGELLRRDL [FANCE], the protein stability index (treatment: DMSO) stood at 3.11 ± 0.4 and the protein stability index (treatment: MLN4924 1 uM, 8 h) worked out at 3.15 ± 0.3.

Turning to ARIYIRRTLRNFINDEMQAKGIPQ [PCMTD1], the protein stability index runs as follows: (treatment: DMSO) 2.01 ± 0.33; (treatment: MLN4924 1 uM, 8 h) 2.15 ± 0.18.

For the sequence ARLNGSVASYILASHNGISYKDLD [TENT5D], the protein stability index by setting is: (treatment: DMSO) 2.85 ± 0.47; (treatment: MLN4924 1 uM, 8 h) 2.68 ± 0.21.

In the case of ARPSSASIRDANLYVSGLPKTMSQ [ELAVL3], the protein stability index runs as follows: (treatment: DMSO) 4.08 ± 0.61; (treatment: MLN4924 1 uM, 8 h) 3.81 ± 0.098.

On to ARRQHLKSVMLQIAATELEKEESR [TNNI2], for which the protein stability index is, setting by setting: (treatment: DMSO) 4.31 ± 0.23; (treatment: MLN4924 1 uM, 8 h) 4.36 ± 0.33.

Consider ASDPLLSSVSPAVSKASSRRSSFS [TFE3], for which the protein stability index (treatment: DMSO) came out at 4.69 ± 0.15 and the protein stability index (treatment: MLN4924 1 uM, 8 h) came out at 4.79 ± 0.25.

Take ASLKSEAESLKGKLEEERAKLHDV [GNB5]: the protein stability index (treatment: DMSO) was 5.32 ± 0.11 and the protein stability index (treatment: MLN4924 1 uM, 8 h) is 5.26 ± 0.32.

As to ATEPATCFPSTQKPTEPSVPVQPL [FBF1], the protein stability index is, setting by setting: (treatment: DMSO) 4.9 ± 0.099; (treatment: MLN4924 1 uM, 8 h) 4.96 ± 0.1.

In the case of ATLPGIFMLLLIFFAFLHCWLNAF [SOAT2], the protein stability index is 2.46 ± 0.5 (treatment: DMSO) and 2.3 ± 0.36 (treatment: MLN4924 1 uM, 8 h).

In the case of AVAGPPAAAEVGGGVGGSSRARSA [ANKRD17], the protein stability index was found to be 5.36 ± 0.22 (treatment: DMSO) and 5.14 ± 0.33 (treatment: MLN4924 1 uM, 8 h).

AVIDSEKDMNFLKRYAGREEHWVG [CD69]: the protein stability index worked out at 2.72 ± 0.39 (treatment: DMSO) and 3.08 ± 0.29 (treatment: MLN4924 1 uM, 8 h).

AVQRLEGALWGLQAQAVQTEQAVA [SCARA5]: the protein stability index runs as follows: (treatment: DMSO) 2.89 ± 0.19; (treatment: MLN4924 1 uM, 8 h) 3.01 ± 0.34.

In the case of AVVKPGNTKEKIAFFASHQCSNRI [FBXO34], the protein stability index by setting is: (treatment: DMSO) 3.81 ± 0.24; (treatment: MLN4924 1 uM, 8 h) 3.83 ± 0.35.

Take AWFGFAGTPGYLSPEVLRKDPYGK [CAMK2A]: the protein stability index is 2.46 ± 0.2 (treatment: DMSO) and 2.88 ± 0.34 (treatment: MLN4924 1 uM, 8 h).

Take AWKDDFALNSMLRRRFREKKKAIQ [YJU2B]: the protein stability index came out at 3.27 ± 0.36 (treatment: DMSO) and 3.37 ± 0.13 (treatment: MLN4924 1 uM, 8 h).

In turn, AYTQTQFHNLRNTLDGYGIHPKSI [NFE2L1] came in with a protein stability index (treatment: DMSO) of 2.57 ± 0.3 and a protein stability index (treatment: MLN4924 1 uM, 8 h) of 2.34 ± 0.26.

For AYVLSKYQYFVCPVEYRSDVNSFV [CDS1], the protein stability index is, setting by setting: (treatment: DMSO) 2.6 ± 0.46; (treatment: MLN4924 1 uM, 8 h) 2.68 ± 0.75.

For CADVILVLQERVRIFAHKIYLSTS [RHOBTB2], the protein stability index (treatment: DMSO) was 3.01 ± 0.25 and the protein stability index (treatment: MLN4924 1 uM, 8 h) is 3.02 ± 0.49.

Regarding CDDYFFIAHRGERRGIGGIFFDDL [CPOX], the protein stability index was 2.16 ± 0.31 (treatment: DMSO) and 1.96 ± 0.45 (treatment: MLN4924 1 uM, 8 h).

Turning to CEKYLPGYYSEKLEAIQLDGEILF [TBC1D10A], the protein stability index is, setting by setting: (treatment: DMSO) 2.14 ± 0.19; (treatment: MLN4924 1 uM, 8 h) 2.12 ± 0.24.

In the case of CFVLFSLTHTHTHTPNHRGINCFF [ANKRD44], the protein stability index amounted to 2.66 ± 0.032 (treatment: DMSO) and 2.82 ± 0.5 (treatment: MLN4924 1 uM, 8 h).

Take CGKCFSQNTHLTRHQRTHTGEKPY [ZNF263]: the protein stability index is 2.94 ± 0.16 (treatment: DMSO) and 3.22 ± 0.14 (treatment: MLN4924 1 uM, 8 h).
